To fix the notation:
B1: ID2-101A07 (VNAR)
VNAR: AARVDQTPQTITKETGESLTINCVLRDSNCALSNLYWYRKKSGSTNEESISLGGRYVETVNSGSKSFSLRINDLTVEDSGTYRCKVQLPYDPLTKECILGRMDVYGDGTAVTVNA
notes: Nurse shark VNAR single domain, tested as monomer
B2: ID2-101B10 (VNAR)
VNAR: AARVDQTPQTITKETGESLTINCVLRDSNCALSSTYWYRKKSGSTNEESISKGGRYVETVNSGSKSFSLRINDLTVEDSGTYRCKVRIDPLLCNASYVKWDDVYGGGTVVTVNA
notes: Nurse shark VNAR single domain, monomer
B3: ID2-101B07 (VNAR)
VNAR: AARVDQTPRSVTKETGESLTINCVLRDSICALSSTHWYRKKSGSTNEESISKGGRYVETVNSGSKSFSLRINDLTVEDSGTYRCKVHGGRSTGLCGDVLLAGDVYGGGTAVTVNA
notes: as for B2
B4: ID2-101A05 (VNAR)
VNAR: AARVDQTPQTITKETGESLTINCVLRDNNCALSTTYWYRKKSGSTNEENISKGGRYVETVNSGSKSFSLRINDLTVEDSGTYRCKVSKDWLLCRDRGRRETDVYGDGTAVTVNA
notes: as for B1
B5: ID2-101B11 (VNAR)
VNAR: AARVDQTPRSVTKETGESLTINCVLRDSNCALSSTYWYRKKSGSTNEENISKGGRYVETVNSGSKSFSLRINDLTVEDSGTYRCKVMLDPLLCPALLESMTDVYGGGTAVTVNA
notes: as for B2
B6: ID2-101A12 (VNAR)
VNAR: AARVDQTPQTVTKETGESLTINCVLRDASYALGSTCWYRKKSGSRNEESISKGGRYVETVNSGSKSFSLRINDLTVEDSGTYRCKVRDPLLFPRDRCDGESKDVYGGGTVVTVNA
notes: as for B2
B7: ID2-101C01 (VNAR)
VNAR: AARVDQTPQTITKETGESLTINCVLRDNNCALSTTYWYRKKSGSTNEENISKGGRYVETVNSGSKSFSLRINDLTVEDSGTYRCKVRLDLLLCRNGSTNSIDVYGGGTAVTVNA
notes: as for B2
B8: ID2-101B05 (VNAR)
VNAR: AARVDQTPRSVTKETGESLTINCVLRDSICALSSTHWYRKKSGSTNEESISKGGRYVETVNSGSKSFSLRINDLTVEDSGTYRCKVNHDLLTSSRRCQSQIKDVYGGGTVVTVNA
notes: as for B2
B9: ID2-101B01 (VNAR)
VNAR: AARVDQTPQTITKETGESLTINCVLRDSNCALSSTYWYRKKSGSTNEESISKGGRYVETVNSGSKSFSLRINDLTVEDSGTYRCNVAPTIISGCSIKRRDVYGGGTAVTVNA
notes: as for B2
B10: ID2-101A03 (VNAR)
VNAR: AARVDQTPQTITKETGESLTINCVLRDNNCALSTTYWYRKKSGSTNEENISKGGRYVETVNSGSKSFSLKINDLTVEDSGTYRCKVRVDRLLCGWRVGRRQLGDVYGGGTVVTVNA
notes: as for B2
B11: ID2-101B12 (VNAR)
VNAR: AARVDQTPQTITKETGESLTINCVLRDSNCALSSTYWYRKKSGSTNEESISKGGRYVETVNSGSKSFSLRINDLTVEDSGTYRCKVFIDPLLCSRDALGFSDVYGDGTAVTVNA
notes: as for B2
B12: ID2-101C02 (VNAR)
VNAR: AARVDQTPQTITKETGESLTINCVLRDNNCALSTTYWYRKKSGSTNEENISKGGRYVETVNSGSKSFSLKINDLTVKDSGTYRCKVTRDPLFCSYRASKRHDVYGGGTVVTVNA
notes: Nurse shark VNAR single domain, monomer in periplasmic extract
B13: ID2-101B03 (VNAR)
VNAR: AARVDQTPRSVTKETGESLTINCVLRDNNCALSTTYWYRKKSGSTNEENISKGGRYVETVNSGSKSFSLRINDLTVEDSGTYRCKVKPDLLFCSSSGLGLIQDVYGGGTAVTVNA
notes: as for B12
B14: ID2-101A01 (VNAR)
VNAR: AARVDQTPQTITKETGESLTINCVLRDSNCALSNLYWYRKKSGSTNEESISLGGRYVETVNSGSKSFSLRINDLTVEDSGTYRCKVRRARVIGGEYCRVQWQDVYGGGTAVTVNA
notes: as for B12
B15: ID2-101C03 (VNAR)
chain: AQAAARVDQTPRSVTKETGESLTINCVLRDSICALSSTHWYRKKSGSTNEESISLGGRYVETVNSGSKSFSLKINDLTVEDSGTYRCKVTRYVVFSGSTCRMRRADVYGGGTVVTMNAASGAHHHHHHGADYKDDDDK
notes: as for B12

Sequence of recombinant mouse BAFF (R&D Systems) (Q9WU72 127-309 limits assumed): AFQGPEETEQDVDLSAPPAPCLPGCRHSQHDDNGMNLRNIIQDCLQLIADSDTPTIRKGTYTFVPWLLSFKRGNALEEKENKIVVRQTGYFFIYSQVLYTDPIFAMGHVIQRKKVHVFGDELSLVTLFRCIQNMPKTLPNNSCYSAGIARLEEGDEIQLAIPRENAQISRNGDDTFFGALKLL

In the first assay the target is T1, recombinant human BAFF-Fc (Sino Biological) (human, UniProt Q9Y275 134-285). As to the kind of experiment: cell-based or functional assay.
T1 sequence (Q9Y275 134-285): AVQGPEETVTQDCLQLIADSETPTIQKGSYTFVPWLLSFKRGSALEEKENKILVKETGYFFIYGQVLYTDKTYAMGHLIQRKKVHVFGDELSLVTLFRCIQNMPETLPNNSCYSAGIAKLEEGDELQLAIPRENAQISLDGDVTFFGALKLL
Regarding B1, the “CELLULAR IC50” value is 58 nM.
On to B2, for which the “CELLULAR IC50” value was approximately 100 nM.
For B3, the “CELLULAR IC50” value came to 60 nM.
Take B4: the “CELLULAR IC50” value was found to be 135 nM.

The next assay has as its target T1, recombinant human BAFF-Fc (Sino …). The experiment in a line: ELISA, purified monomeric VNAR on coated BAFF-Fc, anti-FLAG detection.
Turning to B5, the EC50 amounted to 2.49 nM.
Regarding B6, the EC50 was determined as 4.57 nM.
B1: the EC50 came to 0.5 nM.
On to B2, for which the EC50 was determined as 1 nM.
As for B7, the EC50 is 2.13 nM.
With B8, the EC50 is 11.8 nM.
Consider B3, for which the concentration giving a half-maximal response (EC50) is 0.8 nM.
Still for that read-out and setting: the figure for B9 is 7.4 nM.
Same read-out and setting: then B10, with 17.2 nM.
Same read-out and setting: the figure for B11 is 2.7 nM; for B4 it is 1.5 nM.

For another assay, the target named is T2, human serum albumin (Sigma) (human, UniProt P02768 25-609).
T2 construct: Negative control coat; also called HSA
T2 sequence (P02768 25-609 limits assumed): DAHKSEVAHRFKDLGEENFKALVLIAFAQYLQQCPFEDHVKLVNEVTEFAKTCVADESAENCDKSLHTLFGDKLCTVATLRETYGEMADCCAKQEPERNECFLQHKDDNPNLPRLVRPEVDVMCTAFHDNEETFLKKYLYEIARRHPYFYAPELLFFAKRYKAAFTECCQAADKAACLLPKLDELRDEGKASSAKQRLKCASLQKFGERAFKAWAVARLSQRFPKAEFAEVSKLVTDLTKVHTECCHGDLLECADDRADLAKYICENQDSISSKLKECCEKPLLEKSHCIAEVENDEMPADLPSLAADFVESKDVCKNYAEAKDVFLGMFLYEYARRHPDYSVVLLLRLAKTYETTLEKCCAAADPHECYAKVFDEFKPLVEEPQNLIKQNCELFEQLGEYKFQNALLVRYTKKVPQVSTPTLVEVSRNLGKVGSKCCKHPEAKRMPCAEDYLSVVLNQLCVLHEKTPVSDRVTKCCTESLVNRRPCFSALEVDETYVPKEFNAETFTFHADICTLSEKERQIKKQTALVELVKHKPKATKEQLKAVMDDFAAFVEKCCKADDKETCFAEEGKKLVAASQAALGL
The experiment in a line: ELISA, periplasmic extract on coated HSA (1 µg/mL), anti-FLAG-HRP. How it is done:
(§1) After selection rounds three and four, 93 individual clones were picked and grown in 96 deep-well plates in auto-induction medium (Novagen). Periplasmic protein was extracted by osmotic shock as described in Müller M R et al. (Generation and isolation of target-specific single-domain antibodies from shark immune repertoires. Methods Mol Biol. 2012; 907:177-94) and directly used in a binding ELISA. Briefly, Nunc Maxisorp 96-well plates were coated at 1 μg/mL with either BAFF-Fc or HSA and periplasmic fraction, pre-blocked in PBS-0.1% Tween+2.5% milk, was exposed to the coated surface. After washing in PBS-0.1% Tween, bound VNARs were detected using a peroxidase-conjugated anti-FLAG antibody (Sigma). Absorbance at 450 nm was recorded using an Envision multiwell reader (Perkin Elmer) and BAFF-specific clones were selected using the criteria: BAFF signal/HSA signal ≥4. The DNA sequence of positive clones was determined by the Sanger chain termination method (GATC biotech), using the specific oligonucleotide 5′-[…]-3′. Protein alignments were performed using the BioEdit software.
B5: the binding result is given as “no binding”.
The same measure, in the same setting: the entry for B1 is “no binding”; for B2 it is “no binding”; for B7 it is “no binding”.
For the molecule B8, the binding result is on record as “no binding”.
Consider B9, for which the binding result was “no binding”.
Turning to B10, the binding result was “no binding”.
Take B11: the binding result is “no binding”.
In the case of B4, the binding result is “no binding”.

For a further assay, the target named is T1, recombinant human BAFF-Fc (Sino …). As to the kind of experiment: blocking ELISA, binding of BAFF-Fc to coated BR3 (BAFF-R); repeats Table 2.
For B1, the concentration for half-maximal inhibition (IC50) is 6.8 nM.
As to B2, the IC50 was determined as 2.8 nM.
In the case of B3, the half-maximal inhibitory concentration (IC50) worked out at 6.8 nM.
Still for that read-out and setting: the figure for B4 is 13.8 nM.

For another assay, the target named is T2, human serum albumin (Sigma). The experiment in a line: ELISA, periplasmic extract on coated HSA (1 µg/mL), anti-FLAG-HRP. The source holds these as a separate data set.
On to B6, for which the binding result is on record as “no binding”.
On to B3, for which the binding result is recorded as “no binding”.

The next assay deals with T3, APRIL (Sigma) (UniProt O75888 105-250, limits assumed).
T3 sequence (looked up): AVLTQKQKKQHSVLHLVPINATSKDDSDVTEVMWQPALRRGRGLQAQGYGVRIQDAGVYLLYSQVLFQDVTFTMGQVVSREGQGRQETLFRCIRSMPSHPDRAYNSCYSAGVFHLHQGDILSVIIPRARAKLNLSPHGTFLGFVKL
As to the kind of experiment: ELISA, periplasmic extract on coated APRIL (1 µg/mL), anti-FLAG-HRP. How it is done:
Clones blocking the interaction between BAFF and its three receptors were tested for their ability to cross-react with BAFF's closest related protein, APRIL. Clones were grown in a 96 well format, periplasmic fraction was extracted by osmotic shock as previously described and directly used in a binding ELISA. Nunc Maxisorp 96 well plates were coated at 1 μg/mL with either BAFF-Fc (Sino Biological), HSA (Sigma), or APRIL (Sigma) and periplasmic fraction, pre-blocked in PBS-0.1% Tween+2.5% Milk, was exposed to the coated surface. After washing in PBS-0.1% Tween, bound VNARs were detected using a peroxidase-conjugated anti-FLAG antibody (Sigma). Absorbance at 450 nm was recorded using an Envision multiwell reader (Perkin Elmer).
Consider B5, for which the binding result is given as “no binding”.
Still for that read-out and setting: then B1, with “no binding”; and B2, with “no binding”.
On to B8, for which the binding result is given as “no binding”.
For the molecule B10, the binding result was “no binding”.
For the molecule B11, the binding result is “no binding”.
As to B4, the binding result is on record as “no binding”.

Another assay deals with T1, recombinant human BAFF-Fc (Sino …). As to the kind of experiment: ELISA, periplasmic extract on coated BAFF-Fc (1 µg/mL), anti-FLAG-HRP. How it is done:
as §1
Turning to B12, the binding result is listed as “binds”.
Still for that read-out and setting: then B13, with “binds”; and B14, with “binds”.
For B15, the binding result is “binds”.

The target is the same in another assay. As to the kind of experiment: blocking ELISA, VNAR diluted with 0.5 nM BAFF-Fc; binding of BAFF-Fc to coated BCMA. How it is done:
(§2) The pre-blocked proteins were then exposed to Nunc Maxisorp 96 well plates which were coated at 1 μg/mL with the recombinant human TACI or BCMA (Peprotech), preblocked in (PBS-0.1% Tween+2.5% Milk). After washing in PBS-0.1% Tween, BAFF bound to its receptor was detected via its Fc moiety using a peroxidase-conjugated anti-human Fc (Sigma). Absorbance at 450 nm was recorded using an Envision multiwell reader (Perkin Elmer) and IC50 values were calculated by fitting the curves (non-linear regression) using GraphPad Prism®. The results are shown in FIG. 15 and the fitted IC50 values are tabulated below.
On to B1, for which the IC50 stood at 24.5 nM.
The same measure, in the same setting: then B2, with 10.5 nM; and B3, with 18.9 nM.
As to B4, the IC50 was determined as 17.4 nM.

Another assay shares this target. The experiment in a line: blocking ELISA, VNAR diluted with 0.5 nM BAFF-Fc; binding of BAFF-Fc to coated TACI. Here is the method:
as §2
In the case of B1, the IC50 is 82.7 nM.
As for B2, the IC50 is 14.1 nM.
As to B3, the IC50 worked out at 24 nM.
For B4, the IC50 was found to be 57.8 nM.

A further assay concerns the target recombinant mouse BAFF (R&D Systems) (mouse, UniProt Q9WU72 127-309). As to the kind of experiment: Mouse cross-reactivity grade (binds to both human and mouse BAFF); assay not described.
Consider B2, for which the binding result is reported as “binds”.
Still for that read-out and setting: the entry for B4 is “binds”.

The target of the next assay is T1, recombinant human BAFF-Fc (Sino …). The experiment in a line: blocking ELISA, VNAR diluted with 1.14 nM BAFF-Fc; binding of BAFF-Fc to coated BAFF-R extracellular domain.
As to B5, the IC50 was 6.85 nM.
As for B6, the IC50 amounted to 49.2 nM.
Same read-out and setting: the figure for B1 is 6.8 nM; for B2 it is 2.8 nM; for B7 it is 3.85 nM.
On the same count and under the same terms, the figure for B8 is 148 nM.
Consider B3, for which the IC50 was determined as 6.8 nM.
The same measure, in the same setting: the figure for B9 is 91.2 nM; for B10 it is 12.3 nM; for B11 it is 9.32 nM.
On the same count and under the same terms, the figure for B4 is 13.8 nM.

Values taken from patent publication US20200024354A1 (OSSIANIX, published 2020).
